The text below walks through data of the supplement of paper PMC12764529.

The nature of data set [1]: folding stability dG unfold from trypsin proteolysis; higher = more stable. The method in brief: (§1)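 Sequencing followed digestion of designed mini-proteins with trypsin and chymotrypsin, each at 11 concentrations in threefold dilutions together with a no-protease condition. The mini-proteins were under 80 residues, had no cysteine, sat in a PA-tagged cDNA display construct, and were kept only if AlphaFold2 dimer inter-PAE was above 15. From the counts, Bayesian fitting gave K50, and unfolding free energy was derived against a sequence-predicted unfolded-state K50 and a shared folded-state K50, per protease or combined.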

Data set [2] in a line: folding stability dG unfold from chymotrypsin proteolysis; higher = more stable. Summed up:
as §1

Data set [3] in a line: folding stability dG unfold (combined trypsin and chymotrypsin); higher = more stable. The method in brief:
as §1

± gives the half width of the 95% confidence interval.

For “SAGGSAGGSEPEEPEYILIERVEAGEKPKITITFKDGTKKEIEVKPGETILIKVPKDAKIEVESAGGSAGGS [r12_553_TrROS_Hall]”, the “folding stability dG unfold” value is 0.983 ± 0.067 kcal/mol in data set [1], 1.1 ± 0.13 kcal/mol in data set [2] and 0.94 ± 0.2 kcal/mol in data set [3].
For “SAGGSAGGSETRVLVRPLDGAIVIEAYRRLPDGSWVLAERIVIPTKGDDPESIARAQEVIDKLSAGGSAGGS [r12_169_TrMRF]”, in that order: 3.76 ± 0.059 kcal/mol, 4.67 ± 0.087 kcal/mol and 4.38 ± 0.078 kcal/mol.
For “SAGGSAGGSETVTLTLVVDSPEEAKALIDALKKAGIKEVTLEEKDGKLVLTITMSKEELEKLKSAGGSAGGS [r12_846_TrROS_Hall]”, in that order: 2.31 ± 0.23 kcal/mol, 3.8 ± 0.13 kcal/mol and 3.41 ± 0.2 kcal/mol.
For “SAGGSAGGSETVVIKIEVSPEELEKLKEALEEAGYEVEIRVERDENGKLTVTVTIRLPPGVKPSAGGSAGGS [r12_653_TrROS_Hall]”, in that order: 3.18 ± 0.17 kcal/mol, 2.57 ± 0.069 kcal/mol and 2.86 ± 0.086 kcal/mol.
For the sequence “SAGGSAGGSEVKTITLTIKNKETNKEIKIEVQVFKNEDGELVFIAKAEITYNGKKYTFTVLLPSAGGSAGGS [r12_619_TrROS_Hall]”, the “folding stability dG unfold” value came out at 3.82 ± 0.27 kcal/mol in data set [1], 4.38 ± 0.16 kcal/mol in data set [2] and 4.43 ± 0.31 kcal/mol in data set [3].
For “SAGGSAGGSEVKVLVYPPKGPPRLFADDVPIETLVAQFTAEDPPEPLVLVTKEEAEKLGFPLESAGGSAGGS [r12_379_TrMRF]”, in that order: 0.435 ± 0.047 kcal/mol, 0.15 ± 0.14 kcal/mol and 0.27 ± 0.22 kcal/mol.
For “SAGGSAGGSEVLEVVLPRPDGRLVLLRVDPEGRLALVVFPDGSVRVFEVESPEEAVQRVLDAESAGGSAGGS [r12_866_TrMRF]”, in that order: 1.92 ± 0.054 kcal/mol, 2.6 ± 0.034 kcal/mol and 2.41 ± 0.07 kcal/mol.
For “SAGGSAGGSEWTIESIRPRPDGSLIARVRPEGVNVSVEVEFDTLEELLAFAKLLEELGGKVTGSAGGSAGGS [r20_177_TrMRF]”, in that order: 1.62 ± 0.04 kcal/mol, 1.98 ± 0.023 kcal/mol and 1.82 ± 0.058 kcal/mol.
Turning to “SAGGSAGGSEWYEIRIPGIKGSADDLVEDIQDWFPAPNMKISIEEVEPMGDGLPGMTIKLRVNSAGGSAGGS [r12_348_TrROS]”, the “folding stability dG unfold” value in data set [1] is 0.227 ± 0.033 kcal/mol; in data set [2], 0.361 ± 0.11 kcal/mol; in data set [3] it was 0.381 ± 0.054 kcal/mol.
For “SAGGSAGGSEYRIELELFRTPEGGLVVPVRIYPPDGGRFEGPASLEELVERFGFSFPPLLELLSAGGSAGGS [r20_235_TrMRF]”, in that order: 1.58 ± 0.035 kcal/mol, 2.54 ± 0.12 kcal/mol and 2.15 ± 0.092 kcal/mol.
For “SAGGSAGGSFEILEVHPVKDGWLMIVVRTPGKMKVITIPPDDLDEIPGLDDIAIFPVKDGEPISAGGSAGGS [r12_343_TrROS]”, in that order: 1.28 ± 0.049 kcal/mol, 1.65 ± 0.12 kcal/mol and 1.38 ± 0.21 kcal/mol.
For “SAGGSAGGSFKDVPPGLKPLREEENVLFYQLPDGSYLVLVKEGDKIKKIKASKSTSIEEAIKKSAGGSAGGS [r12_605_JUSTAS]”, in that order: 0.44 ± 0.11 kcal/mol, 2.09 ± 0.041 kcal/mol and 1.61 ± 0.16 kcal/mol.
As for “SAGGSAGGSFPLDEIRKFAKKLGNPFIEIEPVKPHVYRIKIYNKKNGKKKEFPIYLDEDGKIMSAGGSAGGS [r12_170_TrROS]”, the entries for the “folding stability dG unfold” value in data set [1], in data set [2] and in data set [3] were 0.992 ± 0.053 kcal/mol, 1.27 ± 0.15 kcal/mol and 1.16 ± 0.13 kcal/mol, respectively.
For “SAGGSAGGSFRIPKGDPNMKIRIIFQWPNGQPMPMEYTVTPDGTFKINIPGMPPNRIESIEIWSAGGSAGGS [r12_477_TrROS]”, in that order: 1.98 ± 0.17 kcal/mol, 1.68 ± 0.26 kcal/mol and 1.95 ± 0.21 kcal/mol.
For “SAGGSAGGSGGMTPTSRDYVLPNGEKLAVEETFTFPDGSSVTKVLDPKTGTTTTLPASTIASASAGGSAGGS [r12_488_JUSTAS]”, in that order: 0.451 ± 0.032 kcal/mol, 0.321 ± 0.13 kcal/mol and 0.394 ± 0.11 kcal/mol.
For the sequence “SAGGSAGGSGGVIDIPVYGEDGEKFIASAPKEVIEKAIKEGKPIEVYVVDDGKIIKKFTISTGSAGGSAGGS [r12_991_TrMRF]”, the “folding stability dG unfold” value in data set [1] was -0.0801 ± 0.092 kcal/mol; in data set [2] it was -0.0658 ± 0.17 kcal/mol; in data set [3], 0.0354 ± 0.12 kcal/mol.
Turning to “SAGGSAGGSGKPLLLVRLKIRNKETGEEETVVLEADSLDEALARLPPGAEIVSIEVVRLDLPPSAGGSAGGS [r12_208_TrROS_Hall]”, the “folding stability dG unfold” value was 4.34 ± 0.16 kcal/mol in data set [1], 5.38 ± 0.075 kcal/mol in data set [2] and 5.34 ± 0.13 kcal/mol in data set [3].
In the case of “SAGGSAGGSGKVLVLPLPGGTVEEVKEIAKEIKEKYPNAKVTTEVFPTPEGDLVAVVTLENPESAGGSAGGS [r12_425_TrMRF]”, the “folding stability dG unfold” value in data set [1] was 0.307 ± 0.11 kcal/mol; in data set [2], -0.0724 ± 0.087 kcal/mol; in data set [3] it was 0.0277 ± 0.22 kcal/mol.
For “SAGGSAGGSGLEILEEREAVFPLHGLVVKREVVVRSPDGVPLVFVEVEAHPELLPLVERLFERSAGGSAGGS [r12_457_TrMRF]”, in that order: 0.212 ± 0.054 kcal/mol, -0.0155 ± 0.13 kcal/mol and 0.138 ± 0.099 kcal/mol.
As for “SAGGSAGGSGLPIVVQEDGTLVLRREGDGTAAFDVVPLEEFERLPEEFLESLPASALPDPLPLSAGGSAGGS [r12_793_JUSTAS]”, the “folding stability dG unfold” value is -0.428 ± 0.2 kcal/mol in data set [1], 1.41 ± 0.11 kcal/mol in data set [2] and 0.882 ± 0.1 kcal/mol in data set [3].
For “SAGGSAGGSGMKRTATVVERDPATGRVLLEITDGSKTTTRVLEGPPSGRGAASSPEIDSLSLLSAGGSAGGS [r12_421_JUSTAS]”, in that order: -1.16 ± 0.29 kcal/mol, -0.169 ± 0.12 kcal/mol and -0.423 ± 0.098 kcal/mol.
As for “SAGGSAGGSGMTLEEIAERLKEEYNAPEVKVTRDPSKPVYTVTVTLADGSTKTYTIYVPEELGSAGGSAGGS [r12_114_JUSTAS]”, the “folding stability dG unfold” value in data set [1] amounted to 2.63 ± 0.047 kcal/mol; in data set [2], 3.73 ± 0.051 kcal/mol; in data set [3] it was 3.44 ± 0.092 kcal/mol.
For “SAGGSAGGSGNATVMLMFPIEISITVMEWDNGKPKMKTQEIEIWVMIMIPVPPPPDPGDPEWNSAGGSAGGS [r12_713_TrROS]”, in that order: 2.84 ± 0.076 kcal/mol, 4.09 ± 0.071 kcal/mol and 3.76 ± 0.11 kcal/mol.
For “SAGGSAGGSGPMDDPVPPRFSVETSVSPVALPPEFVAYVAAHPEEVDAVYTTTVVVLEEGPAGSAGGSAGGS [r12_196_JUSTAS]”, in that order: -0.559 ± 0.075 kcal/mol, -0.482 ± 0.79 kcal/mol and -0.449 ± 0.22 kcal/mol.
For “SAGGSAGGSGPVLLVRVRPDGTREILDVLPPDEPVENLPAGEFREFRLIPTESLEDALRKALASAGGSAGGS [r12_452_TrMRF]”, in that order: -0.44 ± 0.54 kcal/mol, 0.304 ± 0.37 kcal/mol and -0.00342 ± 0.21 kcal/mol.
For the sequence “SAGGSAGGSGSLEKVFTGENKIITIKYLPDGKVIITLHDPSTPKPIAVIEAKPSEIEEILKKESAGGSAGGS [r20_129_TrMRF]”, the “folding stability dG unfold” value in data set [1] amounted to 1.24 ± 0.12 kcal/mol; in data set [2] it was 1.86 ± 0.076 kcal/mol; in data set [3], 1.76 ± 0.13 kcal/mol.
For “SAGGSAGGSGSMLPITTVTPTPDGVWKITYELPDGSTRTITVPPDDLSLSGPPSSSGSSAALASAGGSAGGS [r20_194_JUSTAS]”, in that order: 1.28 ± 0.091 kcal/mol, 0.041 ± 0.31 kcal/mol and 0.764 ± 0.15 kcal/mol.
Regarding “SAGGSAGGSGSMSTPVTEEITLTLTRTTEDGTEVVITIKVKVVKDPTSDVVTVTEVLSETVEPSAGGSAGGS [r12_358_JUSTAS]”, the “folding stability dG unfold” value in data set [1] was found to be 2.18 ± 0.051 kcal/mol; in data set [2], 2.54 ± 0.039 kcal/mol; in data set [3], 2.37 ± 0.099 kcal/mol.
For “SAGGSAGGSGSVEFETDLKDPNIRKAIEEALKEGKKTAVIPFPDGAEGRIVEVEGDKVRVEISSAGGSAGGS [r12_334_TrMRF]”, in that order: 0.0322 ± 0.15 kcal/mol, 1.29 ± 0.099 kcal/mol and 0.838 ± 0.12 kcal/mol.
As for “SAGGSAGGSGTSTKINILLPVKPGETVKLKVEVNLNSKKVLFYVDVKKNPVGNYLSATFTVTGSAGGSAGGS [r12_136_TrMRF]”, the results for the “folding stability dG unfold” value in data set [1], in data set [2] and in data set [3] were 2.75 ± 0.3 kcal/mol, 4.42 ± 0.12 kcal/mol and 3.85 ± 0.23 kcal/mol, respectively.
“SAGGSAGGSGVLVRITATHPDGSTEEVLEIEVPNDENDPAKLKAIAEELAKKAGMKNIKIELLSAGGSAGGS [r12_569_JUSTAS]”: the figures for the “folding stability dG unfold” value in data set [1], in data set [2] and in data set [3] were 1.95 ± 0.047 kcal/mol, 2.49 ± 0.027 kcal/mol and 2.31 ± 0.07 kcal/mol, respectively.
Regarding “SAGGSAGGSGVSSVLESLPPSYTVTVEKLPESGKLVVTVTSPSGAAPSLTLDEELADLLKELLSAGGSAGGS [r12_174_JUSTAS]”, the “folding stability dG unfold” value in data set [1] was determined as 2.2 ± 0.13 kcal/mol; in data set [2] it was 0.626 ± 0.03 kcal/mol; in data set [3], 1.47 ± 0.093 kcal/mol.
For “SAGGSAGGSGVSSVRPVALPGGRVLVLEYFSSTGKVRVTTLTVGDGRPARAESVTPVTPESILSAGGSAGGS [r12_961_JUSTAS]”, in that order: 0.598 ± 0.052 kcal/mol, 0.275 ± 0.098 kcal/mol and 0.495 ± 0.09 kcal/mol.
For “SAGGSAGGSGVTIPIWYKMDPGQPVPTAEEIQNIINELGFPIKDIKVQYHPDNGYVRAEITVKSAGGSAGGS [r12_1052_TrROS]”, in that order: 1.25 ± 0.048 kcal/mol, 0.828 ± 0.088 kcal/mol and 1.11 ± 0.17 kcal/mol.
Take “SAGGSAGGSGYLSQERPVTIKLPNGEVVEVDGVVRESPESDVVTVEIPETGQTIEVPKANVVESAGGSAGGS [r12_772_JUSTAS]”: the “folding stability dG unfold” value in data set [1] was 0.909 ± 0.06 kcal/mol; in data set [2], -0.035 ± 0.16 kcal/mol; in data set [3], 0.447 ± 0.1 kcal/mol.
For “SAGGSAGGSHRIIFRINSPGMPPRQAADRIADMLQEEHGLKIKGVDIWTYPNGSYWVTITIEPSAGGSAGGS [r12_781_TrROS]”, in that order: 2.77 ± 0.055 kcal/mol, 2.98 ± 0.042 kcal/mol and 2.89 ± 0.073 kcal/mol.
